Read-outs that look alike come from different tables or passages of the source.
T1: human CD16b (NA1), full length, on FlpinCHO cells (human, UniProt O75015 17-200)
T1 construct: also called FlpinCHO-human CD16b (NA1)
T1 chain: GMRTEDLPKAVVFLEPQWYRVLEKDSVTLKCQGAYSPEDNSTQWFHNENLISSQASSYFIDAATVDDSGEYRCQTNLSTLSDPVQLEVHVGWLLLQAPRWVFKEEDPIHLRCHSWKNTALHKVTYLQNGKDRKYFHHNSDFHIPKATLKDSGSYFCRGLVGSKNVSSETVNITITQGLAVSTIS

T2: human CD16b (NA2), full length, on FlpinCHO cells (human, UniProt O75015 17-200)
T2 construct: also called FlpinCHO-human CD16b (NA2)
T2 chain: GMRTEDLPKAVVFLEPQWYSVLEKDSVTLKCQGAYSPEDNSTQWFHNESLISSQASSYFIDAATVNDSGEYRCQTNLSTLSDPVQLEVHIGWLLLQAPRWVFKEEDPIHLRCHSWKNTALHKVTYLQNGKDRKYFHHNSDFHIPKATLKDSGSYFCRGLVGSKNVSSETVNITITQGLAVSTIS

T3: Human CD16b (SH)-his (human)
T3 construct: entry holds ECD, linker, His tag and AVI tag
T3 chain: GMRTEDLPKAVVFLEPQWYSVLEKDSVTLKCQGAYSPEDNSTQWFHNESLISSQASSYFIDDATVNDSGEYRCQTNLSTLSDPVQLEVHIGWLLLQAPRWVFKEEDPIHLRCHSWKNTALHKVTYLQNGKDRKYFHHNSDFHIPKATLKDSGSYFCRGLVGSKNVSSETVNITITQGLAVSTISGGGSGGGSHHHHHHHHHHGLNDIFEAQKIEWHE


Key:
[1] = molecular target: T4, cynomolgus monkey CD16, full length, on FlpinCHO cells (cynomolgus monkey, UniProt Q8SPW2 17-254); test: FACS on FlpinCHO cells
T4 construct: also called FlpinCHO-cyno CD16; Flipin CHO-cyno CD16
Outline: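 FlpinCHO cells expressing full-length cynomolgus CD16, blocked in PBS/2% BSA at 2×10⁶ cells/ml, incubated with antibody at various concentrations 1 h on ice. Flow cytometry MFI fitted to give EC50.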

[2] = molecular target: T5, human CD16a (158V), full length, on cells (human, UniProt P08637 17-254); test: cell-based or functional assay
[3] = molecular target: T1, human CD16b (NA1), full length, on …; test: FACS on FlpinCHO cells
Outline: (§1)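 Trypsin-detached FlpinCHO cells expressing full-length CD16b were blocked in PBS+2% BSA and incubated on ice for 1 hour with antibody at varying concentrations. Binding read by flow cytometry as MFI; EC50 from curve fitting.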

[4] = molecular target: T2, human CD16b (NA2), full length, on …; test: FACS on FlpinCHO cells
Outline: as §1

[5] = molecular target: T6, Human CD16a (158F)-his (human); test: SPR (Biacore), antibody captured on Protein A
T6 construct: entry holds ECD, AVI tag, linker and His tag
Outline: (§2)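 Protein A–captured antibody was probed with CD16-his ECD in HBS-EP+ at 25 °C: five 2-fold dilutions from 200 nM, 240 s at 30 μL/min, dissociation up to 600 s. Glycine pH 1.5 regenerated the chip. Apparent KD came from a double-referenced 1:1 Langmuir fit.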

[6] = molecular target: T3, Human CD16b (SH)-his; test: SPR (Biacore), antibody captured on Protein A
Outline: as §2

[7] = molecular target: T5, human CD16a (158V), full length, on …; test: cell-based or functional assay; remark: listed apart in the source
[8] = molecular target: human CD16a (158F), full length, on FlpinCHO cells (human, UniProt P08637 17-254); test: FACS on FlpinCHO cells
[9] = molecular target: T5, human CD16a (158V), full length, on …; test: FACS on FlpinCHO cells

T4 sequence (Q8SPW2 other isoform, or with tags, fused parts or gaps limits assumed): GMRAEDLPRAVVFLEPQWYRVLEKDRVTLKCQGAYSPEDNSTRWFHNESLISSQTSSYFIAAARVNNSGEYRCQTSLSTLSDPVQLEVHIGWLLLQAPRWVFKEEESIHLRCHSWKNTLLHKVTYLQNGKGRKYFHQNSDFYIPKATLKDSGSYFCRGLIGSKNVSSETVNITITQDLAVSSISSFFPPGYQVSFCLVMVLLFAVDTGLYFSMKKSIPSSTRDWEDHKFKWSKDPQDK
Sequence of human CD16a (158F), full length, on FlpinCHO cells (P08637 17-254 limits assumed): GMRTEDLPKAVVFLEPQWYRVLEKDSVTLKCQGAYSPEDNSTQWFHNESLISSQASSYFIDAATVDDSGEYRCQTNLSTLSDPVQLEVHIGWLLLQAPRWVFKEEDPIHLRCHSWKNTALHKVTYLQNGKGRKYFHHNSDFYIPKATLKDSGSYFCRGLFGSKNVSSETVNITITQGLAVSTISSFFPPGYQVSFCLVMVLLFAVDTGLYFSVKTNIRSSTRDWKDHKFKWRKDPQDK
T5 sequence (P08637 17-254 F176V limits assumed): as the sequence (P08637 17-254 limits assumed) above, with F160V counted along it

EC50 [1] [nM] | Maximum mean fluorescence intensity [1] | EC50, activation activity for Jurkat cell [2] [nM] | Maximum fluorescence value [2] | EC50 [3] [nM] | Maximum mean fluorescence intensity [3] | EC50 [4] [nM] | Maximum mean fluorescence intensity [4] | Kd [5] [nM] | koff [5] [s⁻¹] | kon [5] [M⁻¹ s⁻¹] | Kd [6] [nM] | koff [6] [s⁻¹] | kon [6] [M⁻¹ s⁻¹] | EC50, activation activity for Jurkat cell [7] [nM] | Maximum fluorescence value [7] | EC50 [8] [nM] | Maximum mean fluorescence intensity [8] | EC50 [9] [nM] | Maximum mean fluorescence intensity [9] | Binder | further results
0.41 | 22000 | 0.03 | 166000 | 1.03 | 37900 | 1.43 | 56900 | 42.9 | 0.0235 | 548000 | 4930 | 0.193 | 39100 |  |  |  |  |  |  | VHH11 VHH-Fc antibody (Fc fusion) EVQVVESGGGLAQAGGSLRLSCAVSGITFSSYAMGWYRQDPGKQRELVAAINRFGLTNYADSVKGRFTISRDNAKNTVYLQMTSLKPEDTAVYYCNTGGVYSHPNYYTGTYWGQGTQVTVSSEPKSSDKTHTCPPCPAPEFEGGPSVFLFPPKPKDTLMISRTPEVTCVVVAVSHEDPEVKFNWYVDGVEVHNAKTKPREEQYNSTYRVVSVLTVLHQDWLNGKEYKCKVSNKALPAPIEKTISKAKGQPREPQVYTLPPSREEMTKNQVSLTCLVKGFYPSDIAVEWESNGQPENNYKTTPPVLDSDGSFFLYSKLTVDKSRWQQGNVFSCSVMHEALHNHYTQKSLSLSPGK | 
0.24 | 22200 | 0.02 | 165000 | 0.62 | 58100 | 0.96 | 79100 | 13.3 | 0.0117 | 878000 | 1160 | 0.106 | 91500 | 0.01 | 142000 | 0.23 | 8730 | 0.24 | 8050 | VHH12 VHH-Fc antibody (Fc fusion) QVQLVESGGGLVQAGGSLRLSCAASGITFSSYAMGWYRQAPGKQRELVAAINRFGLTNYADFVKGRFTISRVNAKNTVYLQMTSLKPEDTAVYYCNTGGVYSHPDYYTGTYWGQGTQVTVSSEPKSSDKTHTCPPCPAPEFEGGPSVFLFPPKPKDTLMISRTPEVTCVVVAVSHEDPEVKFNWYVDGVEVHNAKTKPREEQYNSTYRVVSVLTVLHQDWLNGKEYKCKVSNKALPAPIEKTISKAKGQPREPQVYTLPPSREEMTKNQVSLTCLVKGFYPSDIAVEWESNGQPENNYKTTPPVLDSDGSFFLYSKLTVDKSRWQQGNVFSCSVMHEALHNHYTQKSLSLSPGK | 
 |  | 0.04 | 169000 | 1.41 | 33300 |  | 1930 | 5.84 | 0.000374 | 64000 |  |  |  | 0.02 | 168000 | 0.61 | 10200 | 0.66 | 9250 | VHH06 VHH-Fc antibody (Fc fusion) EVQLVESGGGLVQAGGSLRLSCVASGSTWTTYAVRWYRQAPGKQREWVAFISVDGSTNYPDSVKGRFIVSRDNAKNTVYLQMNSLKPEDTADYICRVGGQYWGQGTQVTVSSEPKSSDKTHTCPPCPAPEFEGGPSVFLFPPKPKDTLMISRTPEVTCVVVAVSHEDPEVKFNWYVDGVEVHNAKTKPREEQYNSTYRVVSVLTVLHQDWLNGKEYKCKVSNKALPAPIEKTISKAKGQPREPQVYTLPPSREEMTKNQVSLTCLVKGFYPSDIAVEWESNGQPENNYKTTPPVLDSDGSFFLYSKLTVDKSRWQQGNVFSCSVMHEALHNHYTQKSLSLSPGK | binding result [4]: no binding (tested: 100 nM)

Source: patent US20240343811A1 (SHANDONG SIMCERE BIOPHARMACUTICAL, published 2024)
